B1: RORa: RAR-related Orphan Receptor α (NR1F1), cDNA driver (protein, UniProt P35398 1-523, looked up)
Nuclear receptor ROR-alpha: MESAPAAPDPAASEPGSSGADAAAGSRETPLNQESARKSEPPAPVRRQSYSSTSRGISVTKKTHTSQIEIIPCKICGDKSSGIHYGVITCEGCKGFFRRSQQSNATYSCPRQKNCLIDRTSRNRCQHCRLQKCLAVGMSRDAVKFGRMSKKQRDSLYAEVQKHRMQQQQRDHQQQPGEAEPLTPTYNISANGLTELHDDLSNYIDGHTPEGSKADSAVSSFYLDIQPSPDQSGLDINGIKPEPICDYTPASGFFPYCSFTNGETSPTVSMAELEHLAQNISKSHLETCQYLREELQQITWQTFLQEEIENYQNKQREVMWQLCAIKITEAIQYVVEFAKRIDGFMELCQNDQIVLLKAGSLEVVFIRMCRAFDSQNNTVYFDGKYASPDVFKSLGCEDFISFVFEFGKSLCSMHLTEDEIALFSAFVLMSADRSWLQEKVKIEKLQQKIQLALQHVLQKNHREDGILTKLICKVSTLRALCGRHTEKLMAFKAIYPDIVRLHFPPLYKELFTSEFEPAMQIDG
B2: LXRb: Liver X Receptor β (NR1H2), cDNA driver (protein, UniProt P55055 1-460, looked up)
Oxysterols receptor LXR-beta: MSSPTTSSLDTPLPGNGPPQPGAPSSSPTVKEEGPEPWPGGPDPDVPGTDEASSACSTDWVIPDPEEEPERKRKKGPAPKMLGHELCRVCGDKASGFHYNVLSCEGCKGFFRRSVVRGGARRYACRGGGTCQMDAFMRRKCQQCRLRKCKEAGMREQCVLSEEQIRKKKIRKQQQESQSQSQSPVGPQGSSSSASGPGASPGGSEAGSQGSGEGEGVQLTAAQELMIQQLVAAQLQCNKRSFSDQPKVTPWPLGADPQSRDARQQRFAHFTELAIISVQEIVDFAKQVPGFLQLGREDQIALLKASTIEIMLLETARRYNHETECITFLKDFTYSKDDFHRAGLQVEFINPIFEFSRAMRRLGLDDAEYALLIAINIFSADRPNVQEPGRVEALQQPYVEALLSYTRIKRPQDQLRFPRMLMKLVSLRTLSSVHSEQVFALRLQDKKLPPLLSEIWDVHE
B3: RORg: RAR-related Orphan Receptor γ (NR1F3), cDNA driver (protein, UniProt P51449 1-518, looked up)
Nuclear receptor ROR-gamma: MDRAPQRQHRASRELLAAKKTHTSQIEVIPCKICGDKSSGIHYGVITCEGCKGFFRRSQRCNAAYSCTRQQNCPIDRTSRNRCQHCRLQKCLALGMSRDAVKFGRMSKKQRDSLHAEVQKQLQQRQQQQQEPVVKTPPAGAQGADTLTYTLGLPDGQLPLGSSPDLPEASACPPGLLKASGSGPSYSNNLAKAGLNGASCHLEYSPERGKAEGRESFYSTGSQLTPDRCGLRFEEHRHPGLGELGQGPDSYGSPSFRSTPEAPYASLTEIEHLVQSVCKSYRETCQLRLEDLLRQRSNIFSREEVTGYQRKSMWEMWERCAHHLTEAIQYVVEFAKRLSGFMELCQNDQIVLLKAGAMEVVLVRMCRAYNADNRTVFFEGKYGGMELFRALGCSELISSIFDFSHSLSALHFSEDEIALYTALVLINAHRPGLQEKRKVEQLQYNLELAFHHHLCKTHRQSILAKLPPKGKLRSLCSQHVERLQIFQHLHPIVVQAAFPPLYKELFSTETESPVGLSK
B4: HNF4a: Hepatocyte Nuclear Factor α (NR2A1), cDNA driver (protein, UniProt P41235 1-474, looked up)
Hepatocyte nuclear factor …: MRLSKTLVDMDMADYSAALDPAYTTLEFENVQVLTMGNDTSPSEGTNLNAPNSLGVSALCAICGDRATGKHYGASSCDGCKGFFRRSVRKNHMYSCRFSRQCVVDKDKRNQCRYCRLKKCFRAGMKKEAVQNERDRISTRRSSYEDSSLPSINALLQAEVLSRQITSPVSGINGDIRAKKIASIADVCESMKEQLLVLVEWAKYIPAFCELPLDDQVALLRAHAGEHLLLGATKRSMVFKDVLLLGNDYIVPRHCPELAEMSRVSIRILDELVLPFQELQIDDNEYAYLKAIIFFDPDAKGLSDPGKIKRLRSQVQVSLEDYINDRQYDSRGRFGELLLLLPTLQSITWQMIEQIQFIKLFGMAKIDNLLQEMLLGGSPSDAPHAHHPLHPHLMQEHMGTNVIVANTMPTHLSNGQMCEWPRPRGQAATPETPQPSPPGGSGSEPYKLLPGAVATIVKPLSAIPQPTITKQEVI
B5: RVRa: Rev-Erb α (NR1D1), cDNA driver (protein, UniProt P20393 1-614, looked up)
Nuclear receptor subfamily 1 …: MTTLDSNNNTGGVITYIGSSGSSPSRTSPESLYSDNSNGSFQSLTQGCPTYFPPSPTGSLTQDPARSFGSIPPSLSDDGSPSSSSSSSSSSSSFYNGSPPGSLQVAMEDSSRVSPSKSTSNITKLNGMVLLCKVCGDVASGFHYGVHACEGCKGFFRRSIQQNIQYKRCLKNENCSIVRINRNRCQQCRFKKCLSVGMSRDAVRFGRIPKREKQRMLAEMQSAMNLANNQLSSQCPLETSPTQHPTPGPMGPSPPPAPVPSPLVGFSQFPQQLTPPRSPSPEPTVEDVISQVARAHREIFTYAHDKLGSSPGNFNANHASGSPPATTPHRWENQGCPPAPNDNNTLAAQRHNEALNGLRQAPSSYPPTWPPGPAHHSCHQSNSNGHRLCPTHVYAAPEGKAPANSPRQGNSKNVLLACPMNMYPHGRSGRTVQEIWEDFSMSFTPAVREVVEFAKHIPGFRDLSQHDQVTLLKAGTFEVLMVRFASLFNVKDQTVMFLSRTTYSLQELGAMGMGDLLSAMFDFSEKLNSLALTEEELGLFTAVVLVSADRSGMENSASVEQLQETLLRALRALVLKNRPLETSRFTKLLLKLPDLRTLNNMHSEKLLSFRVDAQ

Experiments:
[1] = test system: mGhrelin promoter; assay: NHR-promoter luciferase screen, mGhrelin promoter; assay type: cell-based, mouse; conditions: for Luc. act., normalized to lacZ / Normalized Luc. act., normalized to control: Table 8, mGhrelin; for Results of assays of transcription factor (+/- ligand) with mGhrelin: Table 6d, luciferase activity relative to control (control = 1.00)
Description: (§1) The use, feasibility, and reproducibility of the functional NHR-promoter screen in a 48-well format have been tested validated. Briefly, there were co-expressed 50 ng of each NHR/NHR homodimer or NHR/RXR heterodimer with 100 ng promoter/luciferase construct and 50 ng of LacZ (as a control for transfection efficiency) in CV-1 cells using Fugene HD (Roche) as a transfection reagent (alternatively or additionally, a CMV-YFP construct can be used as a transfection control). Each of the nuclear hormone receptors that were used in these experiments was cloned into a pcDNA3.1 vector and comprised a C-terminally linked V5H6 tag. Twenty-four hours after transfection, appropriate ligands were added, where applicable, (see Table 5 for various ligands and concentrations and after 48 hrs, samples were assayed for luciferase and LacZ activity. To measure for luciferase activity 15 ul of sample was added to 30 ul of luciferase buffer (20 mM tricine, 1.07 mM MgCarbonate, 2.67 mM MgSulfate, 0.1 mM Naz-EDTA, 5 mM DTT, 5 mM ATP, 0.15 mg/ml CoA, 0.5 mM Luciferin), mixed briefly, and run in a Perkin Elmer Victor 5 luminometer. Thus, the functional NHR-promoter screen was used to observe the transcriptional activity of 29 promoters from various physiological pathways including inflammation, lipid and sugar metabolism, cholesterol transport, xenobiotic metabolism, and circadian rhythm.
(§2) The promoters that facilitate transcription of the indicated gene products that were tested using the protocols described herein are listed in the first row of the table. The nuclear hormone receptors and, where applicable, ligands that were assayed for their transcriptional effects on the promoters are listed in the first column of the table. The data represent the luciferase activity of each sample normalized to both the lacZ activity of that sample and to a control, e.g., no NHR or ligand, as customary in the art. As described previously, these normalizations allow the transcriptional activity of each reporter cell to be compared to other samples.
(§3) Tables 7-40 show the transcriptional effects of the hormone receptors, and, where applicable, ligands (orphan receptors are screened without ligand), on each individual promoter. […] The control data of each table are shown in their last rows.

[2] = test system: hCAR promoter; assay: NHR-promoter luciferase screen, hCAR promoter; assay type: cell-based, human; conditions: for luciferase activity normalized to lacZ activity and to a control, hCAR: hCAR promoter-luciferase, CV-1 cells, NHR +/- ligand, control = 1.00; for Luc. act., normalized to lacZ / Normalized Luc. act., normalized to control: hCAR promoter, HR/ligand component
Description: as §1, §2, §3

[3] = test system: mNPY promoter; assay: NHR-promoter luciferase screen, mNPY promoter; assay type: cell-based, mouse; conditions: for Results of assays of transcription factor (+/- ligand) with mNPY: Table 6d, luciferase activity relative to control (control = 1.00); for Luc. act., normalized to lacZ / Normalized Luc. act., normalized to control: mNPY promoter, HR component with or without ligand; for Normalized Luc. act., normalized to control: relative to control
Description: as §1, §2, §3

[4] = test system: mDio1 promoter; assay: NHR-promoter luciferase screen, mDio1 promoter; assay type: cell-based, mouse; conditions: for Luc. act., normalized to lacZ / Normalized Luc. act., normalized to control: Dio1, HR component without or with its ligand; for mDio1 promoter reporter activity: transcription factor +/- ligand, control = 1.00
Description: as §1, §2, §3

[5] = test system: mCAR promoter; assay: NHR-promoter luciferase screen, mCAR promoter; assay type: cell-based, mouse; conditions: for luciferase activity normalized to lacZ activity and to a control, mCAR: mCAR promoter-luciferase, CV-1 cells, NHR +/- ligand, control = 1.00; for Luc. act., normalized to lacZ / Normalized Luc. act., normalized to control: mCAR promoter, HR/ligand component
Description: as §1, §2, §3

| Molecule | Luc. act., normalized to lacZ [1] | Normalized Luc. act., normalized to control [1] | Results of assays of transcription factor (+/- ligand) with mGhrelin [1] | luciferase activity normalized to lacZ activity and to a control, hCAR [2] | Luc. act., normalized to lacZ [2] | Normalized Luc. act., normalized to control [2] | Results of assays of transcription factor (+/- ligand) with mNPY [3] | Luc. act., normalized to lacZ [3] | Normalized Luc. act., normalized to control [3] | Luc. act., normalized to lacZ [4] | Normalized Luc. act., normalized to control [4] | mDio1 promoter reporter activity [4] | luciferase activity normalized to lacZ activity and to a control, mCAR [5] | Luc. act., normalized to lacZ [5] | Normalized Luc. act., normalized to control [5] | regulation of the Constitutive Androstane Receptor (CAR) promoter ([5]; FIG. 2a, in words) |
| --- | --- | --- | --- | --- | --- | --- | --- | --- | --- | --- | --- | --- | --- | --- | --- | --- |
| B1 | 46.6 | 0.9 | 0.89 | 0.58 | 18.2 | 0.6 | 0.90 | 75.4 | 0.9 | 2.1 | 0.5 | 0.47 | 0.55 | 20.9 | 0.5 | – |
| B2 | 46.7 | 0.9 | 0.89 | 1.44 | 45.5 | 1.4 | 0.81 | 68.0 | 0.8 | 9.8 | 2.2 | 2.19 | 0.92 | 34.9 | 0.9 | – |
| B3 | 109.2 | 2.1 | 2.09 | 1.22 | 38.6 | 1.2 | 0.91 | 76.5 | 0.9 | 5.7 | 1.3 | 1.29 | 1.13 | 43.1 | 1.1 | – |
| B4 | 42.6 | 0.8 | 0.82 | 15.62 | 493.6 | 15.6 | 0.52 | 43.5 | 0.5 | 10.0 | 2.3 | 2.25 | 16.83 | 641.2 | 16.8 | Specific and strong activation |
| B5 | 79.3 | 1.5 | 1.52 | 1.05 | 33.3 | 1.1 | 1.09 | 91.9 | 1.1 | 5.7 | 1.3 | 1.27 | 0.89 | 34.0 | 0.9 | – |

From US20110263454A1, “Methods of Identifying Functional Characteristics of Promoters, Transcription Modifying Proteins and Transcription Modulating Agents” (Salk Institute for Biological Studies, priority 2008, published 2011)
